This test deals with T1, DR4 receptor (human, UniProt O00220 24-239, limits assumed).
T1 construct: The construct used in the ELISA is not described
Kind of test: receptor binding ELISA.

T1 sequence (O00220 24-239 H141R/R209T limits assumed): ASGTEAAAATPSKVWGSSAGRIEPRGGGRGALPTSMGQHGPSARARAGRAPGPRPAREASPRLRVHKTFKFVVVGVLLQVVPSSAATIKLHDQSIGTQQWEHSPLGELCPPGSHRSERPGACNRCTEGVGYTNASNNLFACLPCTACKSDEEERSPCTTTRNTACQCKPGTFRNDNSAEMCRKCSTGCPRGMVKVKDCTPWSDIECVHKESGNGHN

B1: PEG-R170C-Apo2L.0(32176-78) (ligand)
chain: VRERGPQRVAAHITGTRGRSNTLSSPNSKNEKALGRKINSWESSRSGHSFLSNLHLCNGELVIHEKGFYYIYSQTYFRFQEEIKENTKNDKQMVQYIYKYTSYPDPILLMKSARNSCWSKDAEYGLYSIYQGGIFELKENDRIFVSVTNEHLIDMDHEASFFGAFLVG
modifications: Cys170 either carries methoxy-PEG-maleimide, MW 2,000 D, or is in a disulfide bond with Cys170 of another trimer; rest blocked with iodoacetamide
notes: the number of chains is therefore not one value; also called partially PEGylated and disulfide crosslinked R170C-Apo2L.0; PEG-R170C-Apo2L.0 lot 32176-78
In the case of B1, a half-maximal effect (EC50) was put at 0.0045 µg/mL.

B2: PEG-R170C-Apo2L.0 (32176-87C) (ligand)
chain: B1 chain
modifications: methoxy-PEG-maleimide, MW 2,000 D, on Cys170 (one PEG per monomer); residual unpegylated Cys170 carboxyamidomethylated with iodoacetamide
notes: also called PEG-2K-R170C-Apo2L.0; R170C-PEG-2K
Regarding B2, the EC50 was 0.0422 µg/mL.

The record behind these values is patent publication US20040186051A1 (Genentech, published 2004).
